Blank lines part the entries; values can stand above or below the molecule they belong to. Square brackets hold non-standard residues; d marks the D form. Ends that are not written are not given here. Peptide text beside a SMILES is read from it. Lumio green = fluorophore conjugated via N-terminal linker CCPGCCGGGG; Rhodamine‑110 = fluorophore on the N-terminus; pT = C[C@@H](OP(=O)(O)O)[C@H](N)C(=O)O
Tests used:
[1] = molecular target: T1, KLHL3 Kelch domain (GST-KLHL3, a.a. 298–587) (Homo sapiens, UniProt Q9UH77); assay: Fluorescence polarisation assay for the binding of WNK3 variants; details: 25°C; for Kd: GST-KLHL3 a.a. 298–587, 50 mM Tris–HCl pH 7.5, 150 mM NaCl, 2 mM DTT, one site specific binding with Hill slope, three technical replicates per point
T1 construct: using KLHL3 Kelch domain (GST-KLHL3, a.a. 298–587, MRC-PPU plasmid DU44387); host or cells: E. coli BL21
T1 sequence (Q9UH77 298-587): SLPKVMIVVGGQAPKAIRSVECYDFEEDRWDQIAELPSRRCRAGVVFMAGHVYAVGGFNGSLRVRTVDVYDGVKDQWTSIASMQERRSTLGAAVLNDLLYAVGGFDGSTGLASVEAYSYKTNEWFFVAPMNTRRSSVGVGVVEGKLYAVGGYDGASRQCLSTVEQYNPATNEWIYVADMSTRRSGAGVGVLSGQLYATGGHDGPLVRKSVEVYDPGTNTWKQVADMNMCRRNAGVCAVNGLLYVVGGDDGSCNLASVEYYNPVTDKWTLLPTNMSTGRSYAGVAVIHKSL
Protocol: Figure 2. Analysis of the interaction between KLHL3 and WNK3 variants by fluorescence polarisation. Purified GST-KLHL3 a.a. 298–587 was diluted appropriately and mixed at a 1 : 1 volume ratio with 20 nM Lumino-Green-labelled WNK3 peptides to the concentration stated in the Figure, with the peptide concentration consistent at 10 nM. Fluorescence polarisation measurements were recorded and corrected to the fluorescent probe alone. Each data point represents three technical replicates. One site-specific binding with hill slope was assumed and the disassociation constant was obtained. Binding curves, assuming one-site-specific binding, were then generated with Prism6 using milli-polarization (mP) units. TEXT PRINTED IN THE PICTURE: WNK3 [a.a.537-547] […] E541: KD > 50 μM | WNK3 [a.a.537-547] pT541: KD > 50 μM
For fluorescence polarisation measurements of WNK3 variants, the Kelch domain of human KLHL3 (a.a. […]) was cloned into the bacterial expression vector pGEX6P-1 (MRC-PPU plasmid DU44387) and expressed as a GST fusion protein as previously described. Briefly, E. coli BL21 cells were transformed with plasmid DNA and grown at 37°C in LB broth containing 100 µg/ml ampicillin until OD600 reached 0.6. Cells were then cultured at 16°C for a further 16 h in the presence of 50 µM IPTG for protein induction. Harvested cells were lysed by sonication and the lysate clarified by centrifugation. GST fusion protein was affinity purified using 0.5 ml glutathione–sepharose beads and eluted in buffer (50 mM Tris–HCl pH 7.5, 150 mM NaCl, 2 mM DTT) containing 20 mM glutathione.
Fluorescence polarisation measurements were performed at 25°C using KLHL3 Kelch domain (GST-KLHL3, a.a. 298–587, MRC-PPU plasmid DU44387) buffered in 50 mM Tris–HCl pH 7.5, 150 mM NaCl, 2 mM DTT. All peptides (ECEETEVDQHV, WNK3 a.a. 537–547), (ECEET(P)EVDQHV, WNK3 a.a. 537–547, Thr541 is phosphorylated), and (ECEEEEVDQHV, WNK3 a.a. 537–547, Thr541 is mutated to Glu) were conjugated to the Lumio green fluorophore via an N-terminal linker (CCPGCCGGGG) and dialysed into assay buffer before use. Samples were prepared with 10 nM Lumio-green labelled peptide and the indicated concentration of protein in a final volume of 30 µl. Fluorescence polarisation measurements were recorded using a BMG PheraStar plate reader, with an excitation wavelength of 485 nm and an emission wavelength of 538 nm, and measurements were corrected to the fluorescent probe alone. Data analysis and graphing were performed in GraphPad Prism6. One Site Specific binding with Hill Slope was assumed (model Y = Bmax × X^h/KD^h + X^h) and the disassociation constant, and associated standard error was obtained.

[2] = tested on: WNK3 protein levels in HEK293 cells co-transfected with KLHL3-FLAG; assay: KLHL3-mediated degradation of WNK3 on co-transfection, immunoblotting for WNK3 protein levels; format: cell-based; details: WNK3-HA wild type or mutant with increasing KLHL3-FLAG, 48 h post transfection, immunoblot, three independent experiments, mean ± SEM
Protocol: Figure 3. T541E substitution in WNK3 affects its KLHL3-targeted degradation in HEK293 cells. (A) WNK3-HA protein levels were investigated in HEK293 cells transfected with either wild type or mutant constructs and increasing concentrations of KLHL3-FLAG. A representative blot is presented. (B) Quantitative results of three independent experiments. Data are mean ± SEM. * P < 0.01, ** P < 0.0005.
HEK293 cells (ATCC® CRL-1573) were grown in Dulbecco's modified Eagle's medium (DMEM) supplemented with 10% fetal bovine serum to 70–80% confluence and transfected using Lipofectamine 2000 (Life Technologies, Inc.) with wild type or mutant WNK3-HA [46] and with different concentrations of KLHL3-FLAG [42]. Forty-eight hours post transfection, cells were lysed and protein concentration was quantified by the BCA protein assay (Pierce). Samples were diluted in Laemmli buffer and subjected to SDS–PAGE. Proteins were transferred to PVDF membranes which were then blocked for 1 h in 10% (w/v) non-fat milk dissolved in TBS- Tween 20 0.1% (TBSt). Antibodies were diluted in 5% (w/v) non-fat milk-TBSt. Incubation with HRP-coupled primary antibodies was performed overnight. Immunoblots were developed using radiographic film.
Lysis buffer: 50 mM Tris–HCl (pH 7.5), 1 mM EGTA, 1 mM EDTA, 50 mM sodium fluoride, 5 mM sodium pyrophosphate, 1 mM sodium orthovanadate, 1% (w/v) IGEPAL CA-630, 270 mM sucrose, 0.1% (v/v) 2-mercaptoethanol, and protease inhibitors (Complete tablets (Roche Applied Science).

[3] = molecular target: Lumio green-labelled phospho-WNK3 peptide (ECEET(P)EVDQHV, WNK3 a.a. 537–547, Thr541 phosphorylated) (human); assay: fluorescence polarisation; 10 nM Lumio green-labelled WNK3 peptide titrated with GST-KLHL3 Kelch domain; 25°C; 50 mM Tris–HCl pH 7.5, 150 mM NaCl, 2 mM DTT; one site specific binding with Hill slope
[4] = molecular target: Lumio green-labelled WNK3 degron peptide (…, WNK3 a.a. 537–547) (human); assay: as above
[5] = molecular target: T2, GST-KLHL3 Kelch domain (a.a. 298–587) (human, UniProt Q9UH77 298-587); assay: FP
T2 chain: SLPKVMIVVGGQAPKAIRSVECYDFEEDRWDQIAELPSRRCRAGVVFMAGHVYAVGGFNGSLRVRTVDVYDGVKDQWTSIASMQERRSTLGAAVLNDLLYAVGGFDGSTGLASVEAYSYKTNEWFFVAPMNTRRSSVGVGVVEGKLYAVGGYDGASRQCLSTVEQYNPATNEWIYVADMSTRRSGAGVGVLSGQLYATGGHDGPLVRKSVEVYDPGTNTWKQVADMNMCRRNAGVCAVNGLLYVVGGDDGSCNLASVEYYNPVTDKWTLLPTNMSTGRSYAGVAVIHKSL

[6] = molecular target: T3, KLHL3 Kelch domain (a.a. 298–587) (human, UniProt Q9UH77-1 298-587); assay: FP; 75 mM Cl-
T3 chain: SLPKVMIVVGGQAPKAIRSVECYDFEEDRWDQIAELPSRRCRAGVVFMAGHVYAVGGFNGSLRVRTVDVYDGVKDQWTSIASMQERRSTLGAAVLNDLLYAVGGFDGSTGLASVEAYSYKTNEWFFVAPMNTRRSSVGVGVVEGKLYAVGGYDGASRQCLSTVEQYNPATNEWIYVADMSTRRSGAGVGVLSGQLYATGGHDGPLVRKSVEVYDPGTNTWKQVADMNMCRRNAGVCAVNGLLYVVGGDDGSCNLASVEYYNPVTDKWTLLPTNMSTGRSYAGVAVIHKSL

[7] = molecular target: T3, KLHL3 Kelch domain (a.a. 298–587); assay: FP; 9.5 mM Cl-
[8] = molecular target: T3, KLHL3 Kelch domain (a.a. 298–587); assay: FP; 18 mM Cl-
[9] = molecular target: T3, KLHL3 Kelch domain (a.a. 298–587); assay: FP; 2.4 mM Cl-
[10] = molecular target: T3, KLHL3 Kelch domain (a.a. 298–587); assay: FP; 150 mM F-
[11] = molecular target: T4, KLHL3 Kelch domain (a.a. 298–587) (human, UniProt Q9UH77-1 298-587); assay: fluorescence polarisation; 10 nM Rhodamine-110 labelled peptide with KLHL3 (a.a. 298–587) from 0 to 3200 or 6400 nM; 25°C; test of the effect of chloride concentration; one site total fit; details: both partners purified
T4 construct: Kelch-like protein 3 (KLHL3), human, Kelch domain, a.a; 298–587; Vector pNIC28-Bsa4; the hexahistidine tag was cleaved with TEV protease; It is not clear whether Addgene #110251 names the vector or the construct; also called KLHL3 (a.a. 298–587); source: E. coli BL21(DE3)-pRARE, purified (nickel-sepharose, SEC, TEV cleavage); not shown: His6, N-terminal, cleaved
T4 sequence (looked up): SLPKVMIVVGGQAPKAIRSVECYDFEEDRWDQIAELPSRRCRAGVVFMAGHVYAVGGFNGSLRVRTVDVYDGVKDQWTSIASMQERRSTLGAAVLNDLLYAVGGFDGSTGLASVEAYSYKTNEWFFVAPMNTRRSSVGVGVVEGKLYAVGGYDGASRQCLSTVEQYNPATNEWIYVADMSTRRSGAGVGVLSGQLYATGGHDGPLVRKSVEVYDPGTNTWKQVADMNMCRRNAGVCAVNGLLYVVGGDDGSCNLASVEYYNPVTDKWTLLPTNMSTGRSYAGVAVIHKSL

[12] = molecular target: T3, KLHL3 Kelch domain (a.a. 298–587); assay: FP; 37 mM Cl-
[13] = molecular target: T3, KLHL3 Kelch domain (a.a. 298–587); assay: FP; 150 mM Cl-
[14] = molecular target: T3, KLHL3 Kelch domain (a.a. 298–587); assay: FP; 4.7 mM Cl-
[15] = molecular target: T3, KLHL3 Kelch domain (a.a. 298–587); assay: FP; 0 mM Cl-
[16] = 10 nM Lumio-green labelled peptide (N-terminal linker CCPGCCGGGG), 30 µl, ex 485/em 538 nm, repeated at least twice

Molecule: CC(C)[C@H](NC(=O)[C@H](Cc1c[nH]cn1)NC(=O)[C@H](CCC(N)=O)NC(=O)[C@H](CC(=O)O)NC(=O)[C@@H](NC(=O)[C@H](CCC(=O)O)NC(=O)[C@@H](NC(=O)[C@H](CCC(=O)O)NC(=O)[C@H](CCC(=O)O)NC(=O)[C@H](CS)NC(=O)[C@@H](N)CCC(=O)O)[C@@H](C)OP(=O)(O)O)C(C)C)C(=O)O [WNK3 [a.a.537-547] pT541] (H-ECEE[pT]EVDQHV-OH; N-terminus and C-terminus assumed)
- Kd [1, 16]: > 50000 nM
- KLHL3 interaction (in words) ([1]; fluorescence polarisation, GST-KLHL3 a.a. 298–587, 10 nM Lumio-green labelled peptide, pH 7.5): too severely destabilised to measure a dissociation constant

Molecule: WNK3: wild type WNK3-HA transfected in HEK293 cells
- WNK3 levels / KLHL3-mediated degradation (in words) [2]: significantly lower than in the absence of KLHL3, even at the lowest amounts of KLHL3 DNA used for transfection

Molecule: T541A: WNK3-HA mutant T541A transfected in HEK293 cells
- WNK3 levels / KLHL3-mediated degradation (in words) [2]: reduced KLHL3-mediated degradation of WNK3

Molecule: ECEETEVDQHV [WNK3 [a.a.537-547] WT]
- Kd [1, 16]: 670 nM

Molecule: WNK3 T541E: WNK3-HA mutant T541E transfected in HEK293 cells
- WNK3 levels / KLHL3-mediated degradation (in words) [2]: noticeably resistant to degradation

The remaining lines, values ahead:

- Kd ([1]; printed in Figure 2 picture, 10 nM Lumio-green labelled peptide): > 50000 nM
Molecule: ECEEEEVDQHV [WNK3 [a.a.537-547] E541]

- Kd [3]: > 50000 nM
- Kd [4]: 670 nM
Molecule: GST-KLHL3 Kelch domain (a.a. 298–587) (from UniProt Q9UH77 298-587) (domain or fragment)

- Kd [5]: > 50000 nM
B1: Lumio green-labelled WNK3 T541E peptide (ECEEEEVDQHV, WNK3 a.a. 537–547, Thr541 mutated to Glu) (peptide)
peptide: {Lumio green}-CCPGCCGGGGECEEEEVDQHV
modifications: cysteine pairing not given here

- Kd [6]: 600 nM
- Kd [7]: 600 nM
- Kd [8]: 600 nM
- Kd [9]: 600 nM
- Kd [10]: 300 nM
- binding result [11]: binds
- Kd [12]: 600 nM
- Kd [13]: 700 nM
- Kd [14]: 600 nM
- Kd [15]: 700 nM
B2: Rhodamine-110 labelled WNK4 degron peptide (EPEEPEADQHQ) (peptide)
peptide: {Rhodamine‑110}-EPEEPEADQHQ
notes: WNK4 acidic degron motif, residues 557–567; also called 11-residue degron from WNK4; source: synthetic peptide (Fmoc solid phase, purified by HPLC)

- Kd [6]: 1300 nM
- Kd [7]: 1300 nM
- Kd [8]: 1400 nM
- Kd [9]: 1200 nM
- Kd [10]: 1100 nM
- Kd [12]: 1500 nM
- Kd [13]: 1300 nM
- Kd [14]: 1700 nM
- Kd [15]: 1700 nM
B3: Rhodamine-110 labelled WNK3 degron peptide (ECEETEVDQHV) (peptide)
peptide: {Rhodamine‑110}-ECEETEVDQHV
